Target: T1, c-erbB-2 ECD with a Ser-Gly-His6 C-terminal fusion (UniProt P04626 23-652)
T1 construct: extracellular domain; Expressed from CHO cells, IMAC purified; coupled to a CM5 chip, coated on plates, or biotinylated with NHS-LC-biotin; also called c-erbB-2 extracellular domain; biotinylated c-erbB-2 ECD
Assay: SPR BIAcore
Experimental: All assays were performed in triplicate. Briefly, […] of radioiodinated sFv was added to 5×10^6 SK-OV cells in the presence of increasing concentrations of unlabeled sFv from the same preparation. After a 30 minute incubation at 20° C., the samples were washed with PBS at 4° C. and centrifuged at 500 g. The amount of labeled sFv bound to the cells was determined by counting the pellets in a gamma counter and the K_a, and K_d were calculated using the EBDA program (V 2.0, G. A. McPherson, 1983). The K_d of all the other isolated sFv were determined using surface plasmon resonance in a BIAcore (Pharmacia). In a BIAcore flow cell, approximately 1400 resonance units (RU) of c-erbB-2 ECD (25 μg/ml in 10 mM sodium acetate, pH 4.5) was coupled to a CM5 sensor chip (Johnsson et al. (1991), supra). Association and dissociation-rates were measured under continuous flow of […] using a concentration range from 50 to 800 nM. Rate constant $kon$ was determined from a plot of (1(dR/dt))/t vs concentration (Karlsson et al. (1991), supra). Rate constant $Hoff$ was determined from the dissociation part of the sensorgram at the highest concentration of sFv analyzed.
Mutants obtained by combining mutations of C6MH3-B1 or C6MH3-B47 with mutations from D library clones (D1, D2, D3, D5, D6). Rate constants $kon$ and $koff$ were measured by SPR in a BIAcore, and the K_d calculated.

Row | Binder | Kd [nM] | Kd (C6.5)/Kd (mut) | Kd (parent)/Kd (mut) | koff [s⁻¹] | kon [M⁻¹ s⁻¹]
1 | C6-9L1 (scFv, C6L1 with the VL CDR3 of C6ML3-9) scFv: QVQLLQSGAELKKPGESLKISCKGSGYSFTSYWIAWVRQMPGKGLEYMGLIYPGDSDTKYSPSFQGQVTISVDKSVSTAYLQWSSLKPSDSAVYFCARHDVGYCSSSNCAKWPEYFQHWGQGTLVTVSSGGGGSGGGGSGGGGSQSVLTQPPSVSGAPGQWVTISCSGSSSNIGNNYVSWYQQLPGTAPKLLIYDNNKRPSGVPDRFSGSQSGTSASLAISGLRSEDEADYYCASWDYTLSGWVFGGGTKLTVLG | 0.33 | 49 | 3 | 0.0003 | 920000
2 | C6-B1D5 (scFv, Combined B1 and D5 mutations on C6ML3-9) scFv: QVQLLQSGAELKKPGESLKISCKGSGYSFTSYWIAWVRQMPGKGLEYMGLIYPGDSDTKYSPSFQGQVTISVDKSVSTAYLQWSSLKPSDSAVYFCARHDVGYCTDRTCAKWPEWMQMWGQGTLVTVSSGGGGSGGGGSGGGGSQSVLTQPPSVSAAPGQKVTISCSGSSSNIGNNYVSWYQQLPGTAPKLLIYGHTNRPAGVPDRFSGSKSGTSASLAISGFRSEDEADYYCASWDYTLSGWVFGGGTKLTVLG | 0.035 | 457 | 3.4 | 1.8e-05 | 510000
3 | C6-B47D2 (scFv, Combined B47 and D2 mutations on C6ML3-9) scFv: QVQLLQSGAELKKPGESLKISCKGSGYSFTSYWIAWVRQMPGKGLEYMGLIYPGDSDTKYSPSFQGQVTISVDKSVSTAYLQWSSLKPSDSAVYFCARHDVGYCTDRSCAKWPEWLGVWGQGTLVTVSSGGGGSGGGGSGGGGSQSVLTQPPSVSAAPGQKVTISCSGSSSNIGNNYVSWYQQLPGTAPKLLIYGHTNRPAGVPDRFSGSKSGTSASLAISGFRSEDEADYYCASWDYTLSGWVFGGGTKLTVLG | 0.044 | 364 | 2.5 | 4.3e-05 | 980000
4 | C6-B47D6 (scFv, Combined B47 and D6 mutations on C6ML3-9) scFv: QVQLLQSGAELKKPGESLKISCKGSGYSFTSYWIAWVRQMPGKGLEYMGLIYPGDSDTKYSPSFQGQVTISVDKSVSTAYLQWSSLKPSDSAVYFCARHDVGYCTDRSCAKWPEWMYPWGQGTLVTVSSGGGGSGGGGSGGGGSQSVLTQPPSVSAAPGQKVTISCSGSSSNIGNNYVSWYQQLPGTAPKLLIYGHTNRPAGVPDRFSGSKSGTSASLAISGFRSEDEADYYCASWDYTLSGWVFGGGTKLTVLG | 0.051 | 314 | 2.2 | 3e-05 | 590000
5 | C6-B1D2 (scFv, Combined B1 and D2 mutations on C6ML3-9) scFv: QVQLLQSGAELKKPGESLKISCKGSGYSFTSYWIAWVRQMPGKGLEYMGLIYPGDSDTKYSPSFQGQVTISVDKSVSTAYLQWSSLKPSDSAVYFCARHDVGYCTDRTCAKWPEWLGVWGQGTLVTVSSGGGGSGGGGSGGGGSQSVLTQPPSVSAAPGQKVTISCSGSSSNIGNNYVSWYQQLPGTAPKLLIYGHTNRPAGVPDRFSGSKSGTSASLAISGFRSEDEADYYCASWDYTLSGWVFGGGTKLTVLG | 0.015 | 1070 | 8 | 1e-05 | 690000
6 | C6-B47D5 (scFv, Combined B47 and D5 mutations on C6ML3-9) scFv: QVQLLQSGAELKKPGESLKISCKGSGYSFTSYWIAWVRQMPGKGLEYMGLIYPGDSDTKYSPSFQGQVTISVDKSVSTAYLQWSSLKPSDSAVYFCARHDVGYCTDRSCAKWPEWMQMWGQGTLVTVSSGGGGSGGGGSGGGGSQSVLTQPPSVSAAPGQKVTISCSGSSSNIGNNYVSWYQQLPGTAPKLLIYGHTNRPAGVPDRFSGSKSGTSASLAISGFRSEDEADYYCASWDYTLSGWVFGGGTKLTVLG | 0.063 | 254 | 1.7 | 3.9e-05 | 620000
7 | C6-12L1 (scFv, C6L1 with the VL CDR3 of C6ML3-12) scFv: QVQLLQSGAELKKPGESLKISCKGSGYSFTSYWIAWVRQMPGKGLEYMGLIYPGDSDTKYSPSFQGQVTISVDKSVSTAYLQWSSLKPSDSAVYFCARHDVGYCSSSNCAKWPEYFQHWGQGTLVTVSSGGGGSGGGGSGGGGSQSVLTQPPSVSGAPGQWVTISCSGSSSNIGNNYVSWYQQLPGTAPKLLIYDNNKRPSGVPDRFSGSQSGTSASLAISGLRSEDEADYYCAAWDYSRSGWVFGGGTKLTVLG | 0.19 | 84 | 8.4 | 0.00013 | 670000
8 | C6-B47D1 (scFv, Combined B47 and D1 mutations on C6ML3-9) scFv: QVQLLQSGAELKKPGESLKISCKGSGYSFTSYWIAWVRQMPGKGLEYMGLIYPGDSDTKYSPSFQGQVTISVDKSVSTAYLQWSSLKPSDSAVYFCARHDVGYCTDRSCAKWPEWLHVWGQGTLVTVSSGGGGSGGGGSGGGGSQSVLTQPPSVSAAPGQKVTISCSGSSSNIGNNYVSWYQQLPGTAPKLLIYGHTNRPAGVPDRFSGSKSGTSASLAISGFRSEDEADYYCASWDYTLSGWVFGGGTKLTVLG | 0.068 | 235 | 1.6 | 4.8e-05 | 710000
9 | C6-B1D6 (scFv, Combined B1 and D6 mutations on C6ML3-9) scFv: QVQLLQSGAELKKPGESLKISCKGSGYSFTSYWIAWVRQMPGKGLEYMGLIYPGDSDTKYSPSFQGQVTISVDKSVSTAYLQWSSLKPSDSAVYFCARHDVGYCTDRTCAKWPEWMYPWGQGTLVTVSSGGGGSGGGGSGGGGSQSVLTQPPSVSAAPGQKVTISCSGSSSNIGNNYVSWYQQLPGTAPKLLIYGHTNRPAGVPDRFSGSKSGTSASLAISGFRSEDEADYYCASWDYTLSGWVFGGGTKLTVLG | 0.032 | 500 | 3.8 | 1.3e-05 | 410000
10 | C6-B1D3 (scFv, Combined B1 and D3 mutations on C6ML3-9) scFv: QVQLLQSGAELKKPGESLKISCKGSGYSFTSYWIAWVRQMPGKGLEYMGLIYPGDSDTKYSPSFQGQVTISVDKSVSTAYLQWSSLKPSDSAVYFCARHDVGYCTDRTCAKWPEWLDNWGQGTLVTVSSGGGGSGGGGSGGGGSQSVLTQPPSVSAAPGQKVTISCSGSSSNIGNNYVSWYQQLPGTAPKLLIYGHTNRPAGVPDRFSGSKSGTSASLAISGFRSEDEADYYCASWDYTLSGWVFGGGTKLTVLG | 0.013 | 1230 | 9.2 | 8e-06 | 640000
11 | C6-B47D3 (scFv, Combined B47 and D3 mutations on C6ML3-9) scFv: QVQLLQSGAELKKPGESLKISCKGSGYSFTSYWIAWVRQMPGKGLEYMGLIYPGDSDTKYSPSFQGQVTISVDKSVSTAYLQWSSLKPSDSAVYFCARHDVGYCTDRSCAKWPEWLDNWGQGTLVTVSSGGGGSGGGGSGGGGSQSVLTQPPSVSAAPGQKVTISCSGSSSNIGNNYVSWYQQLPGTAPKLLIYGHTNRPAGVPDRFSGSKSGTSASLAISGFRSEDEADYYCASWDYTLSGWVFGGGTKLTVLG | 0.048 | 333 | 2.3 | 3.2e-05 | 660000
12 | C6-B1D1 (scFv, Combined B and D library mutations on C6ML3-9) scFv: QVQLLQSGAELKKPGESLKISCKGSGYSFTSYWIAWVRQMPGKGLEYMGLIYPGDSDTKYSPSFQGQVTISVDKSVSTAYLQWSSLKPSDSAVYFCARHDVGYCTDRTCAKWPEWLHVWGQGTLVTVSSGGGGSGGGGSGGGGSQSVLTQPPSVSAAPGQKVTISCSGSSSNIGNNYVSWYQQLPGTAPKLLIYGHTNRPAGVPDRFSGSKSGTSASLAISGFRSEDEADYYCASWDYTLSGWVFGGGTKLTVLG | 0.032 | 500 | 3.8 | 1.5e-05 | 470000

Target: T1, c-erbB-2 ECD with a Ser-Gly-His6 …
Assay: SPR BIAcore
Remark: another data set of the same source

Row | Binder | Kd [nM] | Kd (mutant)/Kd (C6.5) | koff [s⁻¹] | kon [M⁻¹ s⁻¹]
13 | C6.5C100S/C100eS (scFv, C6.5 VH CDR3 scan mutant; Kabat numbering) scFv: QVQLLQSGAELKKPGESLKISCKGSGYSFTSYWIAWVRQMPGKGLEYMGLIYPGDSDTKYSPSFQGQVTISVDKSVSTAYLQWSSLKPSDSAVYFCARHDVGYSSSSNSAKWPEYFQHWGQGTLVTVSSGGGGSGGGGSGGGGSQSVLTQPPSVSAAPGQKVTISCSGSSSNIGNNYVSWYQQLPGTAPKLLIYGHTNRPAGVPDRFSGSKSGTSASLAISGFRSEDEADYYCAAWDDSLSGWVFGGGTKLTVLG | 280 | 17.5 | 0.138 | 500000
14 | C6.5D96A (scFv, C6.5 VH CDR3 scan mutant; Kabat numbering) scFv: QVQLLQSGAELKKPGESLKISCKGSGYSFTSYWIAWVRQMPGKGLEYMGLIYPGDSDTKYSPSFQGQVTISVDKSVSTAYLQWSSLKPSDSAVYFCARHAVGYCSSSNCAKWPEYFQHWGQGTLVTVSSGGGGSGGGGSGGGGSQSVLTQPPSVSAAPGQKVTISCSGSSSNIGNNYVSWYQQLPGTAPKLLIYGHTNRPAGVPDRFSGSKSGTSASLAISGFRSEDEADYYCAAWDDSLSGWVFGGGTKLTVLG | 45 | 2.8 | 0.01 | 220000

— patent publication US6512097
